In general, Tm refers to the temperature at which the thermal transition is half complete.

Sequences and labels used below:
B1: Ribonuclease pancreatic, P61823 (parent)
chain: MALKSLVLLSLLVLVLLLVRVQPSLGKETAAAKFERQHMDSSTSAASSSNYCNQMMKSRNLTKDRCKPVNTFVHESLADVQAVCSQKNVACKNGQTNCYQSYSTMSITDCRETGSSKYPNCAYKTTQANKHIIVACEGNPYVPVHFDASV

This data set covers variants of B1. The settings on record: Bos taurus, pH 4.2, Thermal, CD, Sodium acetate 0.01 M, NaCl 0.1 M, reversible: yes, structure 1RTB, whole UniProt chain shown; for ddG of mutation (higher = less stable) / heat capacity change of unfolding: 56.2 °C.

As for P119A, the “ddG of mutation (higher = less stable)” value came to 2.7 kcal/mol; the “heat capacity change of unfolding” value was 2.2 kcal/mol/K; the Tm stood at 46.5 °C; the “change of melting temperature, mutant - wild type (higher = more stable)” value (shortened to “change of melting temperature, mutant”) was -9.5 °C.

For P119S, the “ddG of mutation (higher = less stable)” value was 2.1 kcal/mol; the “heat capacity change of unfolding” value is 2.2 kcal/mol/K; the Tm amounted to 47.5 °C; the “change of melting temperature, mutant” value is -8.5 °C.

Regarding P119A P140G, the “ddG of mutation (higher = less stable)” value came to 4.2 kcal/mol; the “heat capacity change of unfolding” value was 2.2 kcal/mol/K; the Tm was 36 °C; the “change of melting temperature, mutant” value was -20 °C.

P140A: the “ddG of mutation (higher = less stable)” value stood at 3.2 kcal/mol; the “heat capacity change of unfolding” value came to 2.2 kcal/mol/K; the Tm is 45.5 °C; the “change of melting temperature, mutant” value was -10.5 °C.

In the case of P140G, the “ddG of mutation (higher = less stable)” value was determined as 2.8 kcal/mol; the “heat capacity change of unfolding” value came out at 2.2 kcal/mol/K; the Tm is 45.5 °C; the “change of melting temperature, mutant” value is -10.5 °C.

For the origin of these results see FireProtDB (doi:10.1002/pro.5560010709).
